# Laboratory results published in patent US20040077522A1 (published 2004).
# B1: Deinococcus radiodurans LuxS (enzyme)
# chain: MPDMANVESFDLDHTKVKAPYVRLAGVKTTPKGDQISKYDLRFLQPNQGAIDPAAIHTLEHLLAGYMRDHLEGVVDVSPMGCRTGMYMAVIGEPDEQGVMKAFEAALKDTAGHDQPIPGVSELECGNYRDHDLAAARQHARDVLDQGLKVQETILLERGSHHHHHH
# modifications: selenomethionine in place of methionine (SeMet protein used for the crystals)
# notes: Open reading frame amplified from D. radiodurans ATCC 13939D genomic DNA and expressed in E. coli with 8 added C-terminal residues; The same protein gave several crystal forms: P21 has a non-crystallographic dimer in the asymmetric unit, and C2 has a crystallographic dimer; also called D. radiodurans LuxS; Deinococcus radiodurans wtLuxS
# B2: Helicobacter pylori LuxS (enzyme)
# chain: MKMNVESFNLDHTKVKAPYVRIADRKKGVNGDLIVKYDVRFKQPNRDHMDMPSLHSLEHLVAEIIRNHANYVVDWSPMGCQTGFYLTVLNHDNYTEILEVLEKTMQDVLKAKEVPASNEKQCGWAANHTLEGAQNLARAFLDKRAEWSEVGVGSHHHHHH
# modifications: selenomethionine in place of methionine (SeMet protein used for the crystals)
# notes: Open reading frame amplified from H. pylori ATCC 43504D genomic DNA and expressed in E. coli with 8 added C-terminal residues; Homodimer in the crystal (two molecules, A and B, in the asymmetric unit); also called H. pylori LuxS; Helicobacter pylori wtLuxS
# B3: Haemophilus influenzae LuxS (enzyme)
# chain: MPLLDSFKVDHTKMNAPAVRIAKTMLTPKGDNITVFDLRFCIPNKEILSPKGIHTLEHLFAGFMRDHLNGDSIEIIDISPMGCRTGFYMSLIGTPNEQKVSEAWLASMQDVLGVQDQASIPELNIYQCGSYTEHSLEDAHEIAKNVIARGIGVNKNEDLSLDNSLLKGSHHHHHH
# modifications: selenomethionine in place of methionine (SeMet protein used for the crystals)
# notes: Open reading frame amplified from H. influenzae ATCC 51907D genomic DNA and expressed in E. coli with 8 added C-terminal residues; Homodimer in the crystal (two molecules in the asymmetric unit); also called H. influenzae LuxS; Haemophilus influenzae wtLuxS
# Target: the molecule itself
# Assay: X-ray crystal structure, homodimer interface
row,Protein,surface area buried through the dimer interaction
1,B1,3930 Å^2
2,B2,4180 Å^2
3,B3,4160 Å^2
